Laboratory results from publication PMC5113729 (Nature structural & molecular biology, 2016).

T1: Sp Dcp2(1-243), as part of the single chain (fission yeast (Sp), UniProt O13828 1-243)
T1 sequence (looked up): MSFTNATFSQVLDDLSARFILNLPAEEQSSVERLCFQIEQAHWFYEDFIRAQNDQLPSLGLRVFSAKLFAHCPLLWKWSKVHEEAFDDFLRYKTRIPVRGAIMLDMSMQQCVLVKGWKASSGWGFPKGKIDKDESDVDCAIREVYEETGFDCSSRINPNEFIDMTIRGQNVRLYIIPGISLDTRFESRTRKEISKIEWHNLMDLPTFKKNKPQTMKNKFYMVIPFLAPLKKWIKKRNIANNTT

B1: Hs PNRC2(91-121) (domain or fragment)
chain: not shown
B2: Sp Dcp1(1-127) (natural protein, fission yeast (Sp), UniProt Q9P805 1-127, looked up)
chain: MEDENILRNAVNLQVLKFHYPEIESIIDIASHVAVYQFDVGSQKWLKTSIEGTFFLVKDQRARVGYVILNRNSPENLYLFINHPSNVHLVDRYLIHRTENQHVVGLWMFDPNDMSRIFNIVKESLLR

Key:
Sp Dcp1(1-127) = target: B2; experiment: crystal structure
[1] = target: T1, Sp Dcp2(1-243), as part of the single …; experiment: crystal structure

binding result (Sp Dcp1(1-127)) | binding result [1] | Binder
binds |  | B1
 | binds | B2
